Test results published in patent publication US6277617A, “Chemically modified enzymes” (Genencor International, Inc., priority 1997, dated 2001).

B1: Bacillus lentus subtilisin, wild type (SBL-WT) (Lederbergia lenta) (protein)
chain: AQSVPWGISRVQAPAAHNRGLTGSGVKVAVLDTGISTHPDLNIRGGASFVPGEPSTQDGNGHGTHVAGTIAALNNSIGVLGVAPSAELYAVKVLGASGSGSVSSIAQGLEWAGNNGMHVANLSLGSPSPSATLEQAVNSATSRGVLVVAASGNSGAGSISYPARYANAMAVGATDQNNNRASFSQYGAGLDIVAPGVNVQSTYPGSTYASLNGTSMATPHVAGAAALVKQKNPSWSNVQIRNHLKNTATSLGSTNLYGSGLVNAEAATR
notes: made in house; host or cells: B. subtilis
B2: Bacillus lentus subtilisin (SBL) variant N62C (Lederbergia lenta; N60C) (protein)
chain: AQSVPWGISRVQAPAAHNRGLTGSGVKVAVLDTGISTHPDLNIRGGASFVPGEPSTQDGCGHGTHVAGTIAALNNSIGVLGVAPSAELYAVKVLGASGSGSVSSIAQGLEWAGNNGMHVANLSLGSPSPSATLEQAVNSATSRGVLVVAASGNSGAGSISYPARYANAMAVGATDQNNNRASFSQYGAGLDIVAPGVNVQSTYPGSTYASLNGTSMATPHVAGAAALVKQKNPSWSNVQIRNHLKNTATSLGSTNLYGSGLVNAEAATR
notes: as for B1

Substrate: C[C@H](NC(=O)CCC(=O)O)C(=O)N[C@@H](C)C(=O)N1CCC[C@H]1C(=O)N[C@@H](Cc1ccccc1)C(=O)Nc1ccc([N+](=O)[O-])cc1
Test: Hydrolysis of succinyl-L-Ala-L-Ala-L-Pro-L-Phe-p-nitroanilide, kinetic parameters
Format: biochemical, Bacillus lentus
Settings: pH 7.5, 0.1 M sodium phosphate, 0.5 M NaCl, 1% DMSO, 25° C.
Method: Activity, including the kinetic parameters kcat, KM, and kcat /KM were measured for hydrolysis of the synthetic peptide substrate succinyl-L-Ala-L-Ala-L-Pro-L-Phe-p-nitroanilide using the method described in Bonneau, P. et al. (1991) J. Am. Chem. Soc., 113(3):1030. Briefly, a small aliquot of subtilisin variant stock solution was added to a 1 cm cuvette containing substrate dissolved in 0.1 M sodium phosphate buffer, pH 7.5, containing 0.5 M NaCl and 1% DMSO, and thermostated at 25° C. or similarly at pH 8.6, 0.1 M tris buffer containing 0.05% Tween™80 and 1% DMSO. The reaction progress was followed spectrophotometrically by monitoring the absorbance of the reaction product p-nitroaniline at 410 nm using a Perkin Elmer λ2 spectrophotometer (Δε410 8800 M^-1 cm^-1).
The modified enzymes were prepared as described above after site-directed mutagenesis to replace the amino acid of interest with a cysteine. The kinetic parameters were determined at pH 7.5 as described above. The precursor protease was a Bacillus lentus subtilisin (SBL-WT).
To examine the effects of chemical modification on the pH profile of SBL, seven modified N62C mutants were made as described above. 0.02M ethylene diamine buffers of ionic strength 0.05M (adjusted with KCl) were employed with 1.25×10^-4 M succinyl-AAPF-pNA substrate and Kcat /KM measurements were performed as described above. Kcat /KM reflects the pKa of His64, part of the catalytic triad for SBL, in the free enzyme and is unaffected by nonproductive binding modes. Fersht, A. E. (1985) Enzyme Structure and Mechanism 2 ed., Freeman (New York). pKa was calculated using Graphit (McGeary & Associates, Middletown Conn.). The shift in pKa reflects a shift in the pH profile of SBL. Representative pH profiles for SBL N62C-Scylcohexyl (N62C-Scy) and SBL-WT are shown in FIG. 3 ([E]=1×10^-7 to 5×10^-8 M at 25° C.). Points were done in duplicate.

Row | Protein | Km (other: SBL-WT) [µM] | kcat (other: SBL-WT) [s⁻¹] | kcat/Km (other: SBL-WT) [M⁻¹ s⁻¹] | Km (other: N62C) [µM] | kcat (other: N62C) [s⁻¹] | kcat/Km (other: N62C) [M⁻¹ s⁻¹]
1 | B1 | 550 | 48 | 87000 |  |  | 
2 | B2 |  |  |  | 1490 | 61 | 41000
